“And” between values parts separate entries of the source, which are not always exact repeats. Identical values can stand only once.
Legend:
[1] = target: biotinylated mouse anti dengue IgG (clone 13C11); assay: Dengue IgM capture ELISA: Prep A […] premixed with 13C11-Biotin 1.6 µg/ml, sheep anti human IgM strips, dengue antigen with anti dengue-HRP tracer
[2] = target: biotinylated mouse anti dengue IgG (clone 13C11); assay: Dengue IgM indirect ELISA: Prep A 1/100 premixed with 13C11-Biotin 1/10,000, dengue 2 antigen plate, HRP sheep anti Human IgM
[3] = target: biotinylated mouse anti dengue IgG (clone 13C11); assay: Dengue IgM indirect ELISA: Prep A 1/10 premixed with 13C11-Biotin 1/10,000, dengue 2 antigen plate, HRP sheep anti Human IgM
[4] = target: biotinylated mouse anti dengue IgG (clone 13C11); assay: Dengue IgM indirect ELISA: Prep A 1/1000 premixed with 13C11-Biotin 1/10,000, dengue 2 antigen plate, HRP sheep anti Human IgM
[5] = target: biotinylated mouse anti dengue IgG (clone 13C11); assay: Dengue IgM capture ELISA: Prep B 1.0 µg/ml premixed with 13C11-Biotin 1.6 µg/ml, sheep anti human IgM strips, dengue antigen with anti dengue-HRP tracer

Chain of Streptavidin-CH3µ Preparation A (chain): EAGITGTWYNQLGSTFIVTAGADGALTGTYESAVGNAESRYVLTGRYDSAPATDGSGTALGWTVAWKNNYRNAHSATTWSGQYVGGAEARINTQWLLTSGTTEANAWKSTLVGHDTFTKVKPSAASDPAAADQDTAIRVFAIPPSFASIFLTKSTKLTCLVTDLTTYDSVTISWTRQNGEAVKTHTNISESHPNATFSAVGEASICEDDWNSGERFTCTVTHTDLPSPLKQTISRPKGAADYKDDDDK
Chain of Streptavidin-CH3µ Preparation B (chain): as above

Substance	A450 [1]	A450 [2]	A450 [3]	A450 [4]	A450 [5]
Streptavidin-CH3µ Preparation A	1.91 absorbance and 1.85 absorbance	1.07 absorbance and 1.08 absorbance	1.19 absorbance and 1.11 absorbance	0.212 absorbance and 0.183 absorbance	
Streptavidin-CH3µ Preparation B					1.2 absorbance and 1.34 absorbance
